# Measured values published in the DeepSol protein solubility set.
# Test: soluble on expression in E. coli; label from the status in PepcDB or PDB records
row,Sequence,soluble on expression in E. coli
1,MNFLSEQLLAHLNKEQQEAVRTTEGPLLIMAGAGSGKTRVLTHRIAYLMAEKHVAPWNILAITFTNKAAREMRERVQSLLGGAAEDVWISTFHSMCVRILRRDIDRIGINRNFSILDPTDQLSVMKTILKEKNIDPKKFEPRTILGTISAAKNELLPPEQFAKRASTYYEKVVSDVYQEYQQRLLRNHSLDFDDLIMTTIQLFDRVPDVLHYYQYKFQYIHIDEYQDTNRAQYTLVKKLAERFQNICAVGDADQSIYRWRGADIQNILSFERDYPNAKVILLEQNYRSTKRILQAANEVIEHNVNRKPKRIWTENPEGKPILYYEAMNEADEAQFVAGRIREAVERGERRYRDFAVLYRTNAQSRVMEEMLLKANIPYQIVGGLKFYDRKEIKDILAYLRVIANPDDDLSLLRIINVPKRGIGASTIDKLVRYAADHELSLFEALGELEMIGLGAKAAGALAAFRSQLEQWTQLQEYVSVTELVEEVLDKSGYREMLKAERTIEAQSRLENLDEFLSVTKHFENVSDDKSLIAFLTDLALISDLDELDGTEQAAEGDAVMLMTLHAAKGLEFPVVFLIGMEEGIFPHNRSLEDDDEMEEERRLAYVGITRAEEELVLTSAQMRTLFGNIQMDPPSRFLNEIPAHLLETASRRQAGASRPAVSRPQASGAVGSWKVGDRANHRKWGIGTVVSVRGGGDDQELDIAFPSPIGIKRLLAKFAPIEKV,soluble
2,MCELDILHDSLYQFCPELHLKRLNSLTLACHALLDCKTLTLTELGRNLPTKARTKHNIKRIDRLLGNRHLHKERLAVYRWHASFICSGNTMPIVLVDWSDIREQKRLMVLRASVALHGRSVTLYEKAFPLSEQFQRKLMTNFLEHHHHHH,not soluble
3,MGAYLNKPIIEKEKEEGSGNGLSYACTTMQGWRVNQEDAHNCVVDLHTDWHMFGVYDGHGGTEVSKFTSAKLPDFLKERKFWEADDVAECLQKAFVDFDDFIRAEESMKELKDIGDEGKPKKAGGEADSEDEADRIDTIEEASVPLAELLKRYGGAGVGKSLLSAFLAKGDVSDDSEDEDEDEEEAEEQDDTEEKKENEDASAEVVIENAEDKEEEEGSPKKKGQKRCQKSPIQSEAKKSKSETDAETAPSSSSGVDGVATEEEDEDDSDKEFVADEEEDDEDAEDEQSDEEMVDGSLAPLLLGSGGAEVPGEDSGTTACVCLVGKDKVIVANAGDSRAVLCRNGKAVDLSVDHKPEDEVETNRIHAAGGQIEDGRVNGGLNLSRAFGDHAYKKNQELGLKEQMITALPDVKIEALTPEDEFIVVACDGIWNSMESQQVVDFVRDLLAKGSSCAEVCDALCDACLADSTDGDGTGCDNMTVICTTFDRKSK,not soluble
4,MKLPARVFFTLGSRLPCGLAPRRFFSYGTKILYQNTEALQSKFFSPLQKAMLPPNSFQGKVAFITGGGTGLGKGMTTLLSSLGAQCVIASRKMDVLKATAEQISSQTGNKVHAIQCDVRDPDMVQNTVSELIKVAGHPNIVINNAAGNFISPTERLSPNAWKTITDIVLNGTAFVTLEIGKQLIKAQKGAAFLSITTIYAETGSGFVVPSASAKAGVEAMSKSLAAEWGKYGMRFNVIQPGPIKTKGAFSRLDPTGTFEKEMIGRIPCGRLGTVEELANLAAFLCSDYASWINGAVIKFDGGEEVLISGEFNDLRKVTKEQWDTIEELIRKTKGS,soluble
5,GPGSMQLQSRAPEHFSTPFFSSPSSSVAYESGCSLDALERLVHFTGAGADACLYAVHPPQAKGTDSAALTPTTEGLRYWLNPSVRARPTTATCEITNLGPPFFASTSTAVLRISATPLFVDGRCFPTRCVVSLATSAQRLDGVSLRPVVVTEWNLTASGAAGVCTTTVPLRTLYHLAVLISSSAPATGVEEVRLYLHLRFMGCSDGSDTHRIAAVRLRYEQLGTAAEVLPQLLQRRQRAAAHVMLPSPYDVKYHSEGRFTRAGAPLEEVEVGVIAGSSTATSSGRKDMGDDAGKSLFVGAKERRTHTSPPSSTRMRSDGCETRGDRRRGRAPRGC,soluble
6,MISVTDLRPGTKVKMDGGLWECVEYQHQKLGRGGAKVVAKFKNLETGATVERTFNSGEKLEDIYVETRELQYLYPEGEEMVFMDLETYEQFAVPRSRVVGAEFFKEGMTALGDMYEGQPIKVTPPTVVELKVVDTPPGVRGDTVSGGSKPATLETGAVVQVPLFVEPGEVIKVDTRTGEYVGRA,soluble
7,MAKSNSNNSHNEADTLSSLLSSVGSSYDGESDSTFVSTGTTPSSSRRSRLDSFLSTTSSSKSRPRIKSKLPRSSSSGFSGTGSERSISSKRSKIGNTSGNRNKISQSARRRLLQAEIESRRNRSNKSPGSSRKSILKKSPMKKRRSLSRKSLPKKEHIPPVQKFAIIKNPAARNQVRGFVAEYAQDPEFEAFELLVDGIPFVALSLMNAHPDLRGRFKPVPPPTPMKKHTPGINSPRKRPLRRESISSVNSKSVRFTDEGSSFSKRARKSSSGDVDSSIRELGETVSDAMIDTGRQYNDLWKDRAHSVEK,not soluble
8,MASGRQSGRDTEEYGGLSNSGISSGSHVKDTAYYERRRKNNAAAKKSRDRRRIKEDEIAIRAAYLERQNIELLCRIDALEVQLAAITSAKVTTAAAAAAALEHHHHHH,not soluble
9,RVVTQNEIDRTIPVGAIMMWAADSLPSDAWRFCHGGTVSASDCPLYASRIGTRYGGSSSNPGLPDMRGLFVRGSGRGSHLTNPNVNGNDQFGKPRLGVGCTGGYVGEVQKQQMSYHKHAGGFGEYDDSGAFGNTRRSNFVGTRKGLDWDNRSYFTNDGYEIDPASQRNSRYTLNRPELIGNETRPWNISLNYIIKVKE,soluble
10,PPKIRVVVRKRPISKKERERGDDDVVDVLAKNNTVVVNEEKVKVDLTKYLEKHAFKFDESLDENVSNEAVYQLTVGPLVRTLFRNGRASCFAYGQTGSGKTYTMSPLPIRASADIFTFMAQQQYRDISLCVSCFEIYGNKVFDLLNARKKLNILEDGKKKVVVVGLKEFGVDDVDGVKALIEESAKNRSTGSTAANADSSRSHSIMQFALKRAAPAPAGGFRRGEDAPEPRVVGKISFIDLAGSERGADTFDNNRQTRLEGAEINKSLLALKECIRALDSDARHVPFRGSKLTAVLRDSFVGDQARTVMIANISPCSSSVEHTLNTLRYADRVKELRKDKADRT,soluble
11,TEEPDFTALCQKLKIPDHVRERAWLTWEKVSSVDGVLGGYIQKKKELWGICIFIAAVDLDEMSFTFTELQKNIEISVHKFFNLLKEIDTSTKVDNAMSRLLKKYDVLFALFSKLERTCELIYLTQPSSSISTEINSALVLKVSWITFLLAKGEVLQMEDDLVISFQLMLCVLDYFIKLSPPMLLKEPYKTAVIPINGSPRTPRRGQNRSARIAKQLENDTRIIEVLCKEHECNIDEVKNVYFKNFIPFMNSLGLVTSNGLPEVENLSKRYEEIYLKNKDLDARLFLDHDKTLQTDSIDSFETQR,soluble
12,MGSDKIHHHHHHMPCMTLLRRAFAIPLLLMVSSGLALAERPAENQKIALQMYTLRSVSTLDEQFSMAHNAGFKAVELVGTHGISASEMKGLLGKYQLKAIAAHVQLGELKSNMAEVVAFNKAIGNRMIIVPWLNVEDRPNSAEGWQRFGTEMNDLGRELKKQGMQLAYHNHNFEMKKYRGKTALEIMLDAAEPENLMLEMDVAWVSLGGQDPARLLRQYKGRIYSIHAKDNTSIGIRDDEMNFAPPGEGILAWEEILPAAAKAGTQWFVAEHDLPKDPQAIISAAYQSLYEKLSKVKSK,not soluble
13,MGSDKIHHHHHHMKQKLRLIQRRTVHYLLVVTYWISKFFPVQTKKVVFATYRSDKLVDNFRAVYDELESRELGFQYVFLLKRFPQNLIGQIKYVFHMMRATYELATARYFIIDDYYYPVYVSKLRKGTEVIQLWHACGAFKKFGYSVLDKSYSPDDDYLKMVAIHRNYSKVYVSGEACIGPFAEAFGMDSTRIHPLGVPRTDQLLNRERQVQIEHKLYDRYPEWRSKKLILLAPTFRGNGQTTAHYDQELDFQQFREQLGPDHILLLRMHPFVLNRPVVPAEFSNQIIDMTDYPDINDLMQVADILVTDYSSVIFEFALLKKPIILLVNDLNAYREERDFYFPYESFVPGPIVSSFNDVISWIKAGQFEPEQIEDFAARFFTYQDGLATKRIVNHILTGALPDAPMRPEERKTV,not soluble
14,AHHHHHHGSGLFDKLKKAEVQKKVPSSLKSRIKEEPSEVELVPVEEEVLAKELVKPKVVYIKKIVISTHADLKRVSDELKSGNIVIVELTPLEQKPELLKKIAEQLMTTASIIGGDYAKICGSPLKVILTPPEIKIAKE,not soluble
15,MAIETAILEKIKQYQTIIIHRHQRPDPDCIGSQLALRAILRASFPEKTVVAVGKHYPGFDWMGQADQEVSDDTYHQALVIVVDTANQPRVDDERWQTGAAVIKIDHHPNDDAFGDLQWVLPQASSTSEIIYDWFEANHADLTMPDDAARLLYAGIVGDTGRFMYPATSANTFAVAGKLLAYDFSMTAVNQAEDEISPEMARLSAYAYQNLEILPSGAAYLKLTDEIVESFGLAASDSTSAIVPLPGKITSVVAWAIFVESKDKTFRVRLRSKGPSINELAKRHGGGGHALASGAAAKDQAEIDQVIHELDQLVADTKGENELEHHHHHH,soluble
16,MSLKKSLTELISDLKGNENVVNWHEIEPREAKTRPMPESIDERIKAALSKRGIDELYTHQYSAFQYVQKGESIVTVTPTASGKTLCYNLPVLQSIAQDETNRALYLFPTKALAQDQKSELNEIIDEMGIDIKSFTYDGDTSPAIRQKVRKAGHIVITNPDMLHSAILPHHTKWVSLFENLKYIVIDELHTYRGVFGSHVANVIRRLKRICRFYGSDPVFICTSATIANPKELGEQLTGKPMRLVDDNGAPSGRKHFVFYNPPIVNKPLNIRRSATAEVNELAKEFLKNKVQTIVFARSRVRVEIILSHIQELVKKEIGTKSIRGYRGGYLPKERREIERGLREGDILGVVSTNALELGVDIGQLQVCVMTGYPGSVASAWQQAGRAGRRHGESLIIMVANSTPIDQYIVRHPEYFFNRSPESARINPENLIILVDHLKCAAYELPFRADEEFGAMEVSDILEYLQEEAVLHRNGERYHWASESFPASNISLRSASQENVVIVDQSDIANVRIIGEMDRFSAMTLLHDEAIYLHEGVQYQVEKLDWDHKKAYVRKVDVEYYTDANLAVQLKVLEIDKTKEKSRTSLHYGDVTVNALPTIFKKIKMTTFENIGSGPIHLPEEELHTSAAWLEIKTADEDIGEKTLEQLLLGISNVLQHIVPVYIMCDRNDVHVVSQIKAAHTGLPTIFLYDHYPGGIGLAEEVFKRFSDINEAAKQLITHCPCHDGCPSCIGTEIEGIKAKERILQLLDQMSEGHHHHHH,soluble
17,GPGSMDSMCTFIIRPPRSTYEIADLGPGVFRIGDDCTERFMRHDFELENMRGLRFQCSWFKPYPARRVPCVVYCHANCGGRYDGLEALFLLQEGFSLFCFDFCGSGMSEGEYISLGFYERQDLVAIVEFLSLKSDEVDGVALWGRSMGAVATIMYASKGSIRGFVVLFAIRPSHPCGCSSTIWWSDMVGERPGFCQRFWCTGLWSASVSAS,not soluble
18,MMQIDRNEKADAWLAHTQREQSGRLTIFLGAAPGVGKTYAMLTRAHELMQQGKQVVVGVVETHGRADTARLIAGLNVIPRRVVEYQDRKLEEMDLDQILHIKPEIVLVDELAHRNVPGSRHEYRWQDVNEILDAGINVYSTLNIQHLESLNDVVYQITGIRVTETVPDALLKRLKDIRLVDLPVPELLERMKHGKIYLDDMAPHALQGFFKPAHLTALRDLAIQTVAGQV,not soluble
19,MSENLTMSELMDSFELKHFHKGEIVKGKVISVKNDEIIVNIGHFADGVVPRNEISNDKNFDINSINVDDDIFVMVLSGDDGEGNVLLSKKRADAIKVCDDLKEAFEEEKSIKVSLKEVVKGGIVGDFNGLRVFMPASQCAGRRIENLEELVGKTLEVRVIEFNKENRKVVVSRRVIDEEIRNNEKKALWSSIKEGEKRKGKVTRLAKFGAFVDIGGVEGLVHLSDMSWSRVHKPEEVVSVGDEVEVFVSEVDMDRERIALSLKDVIKNPWETLEGLKVGNVVLGKVTNFIKVGAFVEVLPGIEGLVHISEITDENIAKPSDILELGQEVKVKILNIDDENKKMSLSIKDAVETSNEYMQYNDEEEGYSLADLFKGLNLLEHHHHHH,soluble
